Data on seven molecules can be found in PMC4182348 (PLoS ONE, 2014).

Substitutions are numbered along the chain they refer to. Numbers in names are those of the source.

What all share (conditions): one partner purified
The target of test [1] is tetanus toxoid (Clostridium tetani, strain  …, UniProt P04958). As to the kind of experiment: SPR.
Target sequence in this assay (P04958 whole entry): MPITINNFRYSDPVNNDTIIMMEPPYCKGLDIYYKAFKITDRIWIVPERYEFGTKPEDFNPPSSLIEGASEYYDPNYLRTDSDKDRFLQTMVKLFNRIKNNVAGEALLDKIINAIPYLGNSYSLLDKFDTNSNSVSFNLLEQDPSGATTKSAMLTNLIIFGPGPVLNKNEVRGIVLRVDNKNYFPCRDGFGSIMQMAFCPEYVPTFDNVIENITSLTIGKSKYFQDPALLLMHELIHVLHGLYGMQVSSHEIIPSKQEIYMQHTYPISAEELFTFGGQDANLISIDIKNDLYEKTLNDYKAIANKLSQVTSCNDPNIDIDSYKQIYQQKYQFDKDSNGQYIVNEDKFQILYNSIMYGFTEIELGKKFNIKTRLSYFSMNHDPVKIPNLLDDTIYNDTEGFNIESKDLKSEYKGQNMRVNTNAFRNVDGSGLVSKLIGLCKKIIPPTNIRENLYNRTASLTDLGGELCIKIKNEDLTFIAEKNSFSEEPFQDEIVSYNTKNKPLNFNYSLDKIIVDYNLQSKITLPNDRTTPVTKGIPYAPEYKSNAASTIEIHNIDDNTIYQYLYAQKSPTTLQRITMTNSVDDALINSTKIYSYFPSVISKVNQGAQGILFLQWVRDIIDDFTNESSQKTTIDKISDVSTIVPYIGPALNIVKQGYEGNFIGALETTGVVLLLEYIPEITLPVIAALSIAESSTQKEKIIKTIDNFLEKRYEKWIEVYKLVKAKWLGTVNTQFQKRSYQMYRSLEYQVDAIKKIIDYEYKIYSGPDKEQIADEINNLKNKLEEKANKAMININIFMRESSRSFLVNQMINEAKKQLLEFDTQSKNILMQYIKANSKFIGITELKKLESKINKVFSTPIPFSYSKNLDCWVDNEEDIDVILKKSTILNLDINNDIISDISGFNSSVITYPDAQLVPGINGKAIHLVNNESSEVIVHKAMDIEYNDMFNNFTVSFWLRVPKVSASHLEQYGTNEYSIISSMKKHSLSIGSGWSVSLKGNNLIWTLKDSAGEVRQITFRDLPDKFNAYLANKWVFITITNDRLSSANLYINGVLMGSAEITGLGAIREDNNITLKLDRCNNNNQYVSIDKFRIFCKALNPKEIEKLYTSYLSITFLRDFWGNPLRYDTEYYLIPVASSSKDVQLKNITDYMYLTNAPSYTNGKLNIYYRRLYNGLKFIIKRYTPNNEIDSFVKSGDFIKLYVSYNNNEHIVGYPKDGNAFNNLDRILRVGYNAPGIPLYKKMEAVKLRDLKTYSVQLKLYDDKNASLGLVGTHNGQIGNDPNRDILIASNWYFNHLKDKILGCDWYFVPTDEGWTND
The target of test [2] is T1, tetanus toxoid (Clostridium tetani, strain  …, UniProt P04958). As to the kind of experiment: ELISA. (In general: ELISA stands for enzyme-linked immunosorbent assay.)
T1 sequence (P04958 1-457, chain 1 of 2): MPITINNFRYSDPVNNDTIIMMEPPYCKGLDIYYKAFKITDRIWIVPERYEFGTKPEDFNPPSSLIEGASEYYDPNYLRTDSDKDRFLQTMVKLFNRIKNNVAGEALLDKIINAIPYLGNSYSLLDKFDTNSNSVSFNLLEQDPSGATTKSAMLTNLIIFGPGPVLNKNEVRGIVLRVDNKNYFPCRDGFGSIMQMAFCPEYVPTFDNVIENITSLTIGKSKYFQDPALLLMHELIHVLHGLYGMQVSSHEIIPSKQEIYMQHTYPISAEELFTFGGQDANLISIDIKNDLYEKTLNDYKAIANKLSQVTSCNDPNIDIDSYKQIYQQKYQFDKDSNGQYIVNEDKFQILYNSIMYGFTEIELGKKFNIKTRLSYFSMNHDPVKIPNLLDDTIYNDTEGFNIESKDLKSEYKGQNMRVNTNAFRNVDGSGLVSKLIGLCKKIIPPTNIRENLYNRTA
T1 sequence (P04958 458-1315, chain 2 of 2): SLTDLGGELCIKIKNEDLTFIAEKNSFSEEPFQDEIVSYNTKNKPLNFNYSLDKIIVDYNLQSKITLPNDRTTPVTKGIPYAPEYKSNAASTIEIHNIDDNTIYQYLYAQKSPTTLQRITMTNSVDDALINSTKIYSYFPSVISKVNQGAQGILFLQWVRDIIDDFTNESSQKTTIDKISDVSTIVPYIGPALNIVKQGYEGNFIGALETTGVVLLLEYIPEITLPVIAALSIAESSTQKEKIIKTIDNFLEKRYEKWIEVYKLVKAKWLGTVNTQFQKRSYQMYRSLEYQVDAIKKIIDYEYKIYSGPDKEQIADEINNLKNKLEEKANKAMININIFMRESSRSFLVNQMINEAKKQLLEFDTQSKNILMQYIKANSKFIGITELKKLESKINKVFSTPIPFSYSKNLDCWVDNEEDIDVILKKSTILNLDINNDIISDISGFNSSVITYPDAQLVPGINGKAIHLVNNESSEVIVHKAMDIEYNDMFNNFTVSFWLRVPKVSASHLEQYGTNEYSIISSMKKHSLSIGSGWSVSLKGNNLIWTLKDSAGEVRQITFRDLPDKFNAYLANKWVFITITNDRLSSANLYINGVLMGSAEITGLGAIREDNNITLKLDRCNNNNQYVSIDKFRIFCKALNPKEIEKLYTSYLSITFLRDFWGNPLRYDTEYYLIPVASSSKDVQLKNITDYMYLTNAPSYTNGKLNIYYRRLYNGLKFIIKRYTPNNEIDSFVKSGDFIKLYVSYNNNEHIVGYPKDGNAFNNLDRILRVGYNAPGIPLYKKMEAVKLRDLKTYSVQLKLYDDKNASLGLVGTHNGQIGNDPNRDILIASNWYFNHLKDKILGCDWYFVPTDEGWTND
Test [3] deals with T1, tetanus toxoid. Put plainly: SPR. This is another data set of the same source. (In general: SPR reads the build-up and loss of mass on a sensor chip optically.)

B1: TT-specific Fab S10 from the phage display library (Fab, V domains shown)
VH: LVAPSQSLSITCTVSGFSLTDYGVNWVRQPPGKGLEWLGMIWGDGSTDYNSALKSRLSISKDNSKSQVFLKMNSLQTDDTARYFCVRTFHYGNYFDYWGQGTTLTVSS
VL: TMAASPGEKITITCSASSSISSNYLHWYQQKPGFSPKLLIYRTSNLASGVPARFSGSGSGTSYSLTIGTMEAEDVATYYCQQGSSIPLTFGAGTKLELK
With B1, in the test with tetanus toxoid [1], the Kd (as a rule, the equilibrium constant for the complex coming apart) was 12 nM; the koff (in general, a measure of how fast the partners let go of each other) worked out at 0.00032 s⁻¹; the kon (usually a measure of how fast the partners come together) came out at 26000 M⁻¹ s⁻¹.

B2: TT-specific Fab D5O 94 from the phage display library (Fab, V domains shown)
VH: LVKPGASVKIPCKASGYTFTDYNIDWVKQSHGKSLEWIGDINPNNGGTIYNQKFKDKATLTVDKSSSTAYMELRSLTSEDTAVYYCARDFYYGRYFDYWGQGTTLTVSS
VL: TMAASPGEKITITCSATSSISSNYLHWYQQKPGFSPKLLIYRTSNLASGVPARFSGSGSGTSYSLTIGTMEAEDVATYYCQQGSNIPTFGSGTKLELK
In the test with tetanus toxoid [1], B2 gave a Kd of 4.8 nM, a koff of 0.00037 s⁻¹ and a kon of 78000 M⁻¹ s⁻¹.

B3: phage display isolate S546 (Fab, V domains shown)
VH: LVAPSQSLSITCTVSGFSLTSYGVHWVRQPPGKGLEWLGVIWPGGSTNYNSALMSRLSISKDNSKSQVFLKMNSLQTDDTAMYYCARDFQYGNYFDYWGQGTTLTVSS
VL: B2 VL with T17S, A52T, N85S, P87S, S91A
For the molecule B3, the binding result with tetanus toxoid [2] is listed as “binds”.

B4: anti-TT mAb of hybridoma P4T29115 (antibody, V domains shown)
VH: EVKLVESGGGLVKPGGSLKLSCAASGITFSNYAMSWVRQTPEKRLEWVATISSGGSYIYYPDSVKGRFTISRDNAKNTLYLQMSSLRSEDTAVYFCARLGYDGVALDYWGQGTSVTVSS
VL: ASLGDRVSISCRASQDIRNYLNWYQQRPDGTVKLLIYYTSRLHSGVPSRFSGSGSGTDYSLTISNLEQEDIATYFCQQGNTFPWTFGGGTKLEIK
Turning to B4, the binding result with tetanus toxoid [2] is reported as “binds”.

B5: anti-TT mAb of hybridoma 14 (antibody, V domains shown)
VH: VQLQESGPGLVAPSQSLSITCTVSGFSLTSYGVHWVRQPPGKGLEWLGVIWPGGSTNYNSALMSRLSISQDNSKSQVFLKMNSLQIDDTAMYHCARDFQYGNYFDYWGQGTSLTVSS
VL: MPASPGEKITITCSASSSISSNYLHWYQQKPGFSPKLLIYRTSNLASGVPARFSGSGSGTSYSLTVGTMEAEDVATYYCQQGTSIPTFGAGTKLELK
In the test with tetanus toxoid [3], B5 had a Kd of 3.1 nM, a koff of 0.00029 s⁻¹ and a kon of 94000 M⁻¹ s⁻¹.

B6: phage display isolate S917 (Fab, V domains shown)
VH: LVKPGGSLKLSCAVSGFNFSNYAMSWVRQTPEKRLEWVATISSGGSYIYYPDSVKGRFTISRDNAKNTLYLQMSSLRSEDTAMYYCARQDRYGFALDYWGQGTSVTVSS
VL: SLSASLGDRVTISCRASQDINNYLNWYQQKPDGTIRLLIYYTSRLHSGVPSRFSGSGSGTDYSLTITNLEQEDFATYFCQQGNTLPWAFGGGTKLEIK
Turning to B6, in the test with tetanus toxoid [2], the binding result is “binds”.

B7: anti-TT mAb of hybridoma 24 (antibody, V domains shown)
VH: VQLQQTGPGLVQPSQSLSITCTVSAFSLTNYGIHWVRQSPGKGLEWLGVIWTGGSTDYNAPFISRLSISKDNSKSQVFFKMNSLQANDTAIYYCVRDGYRVMDYWGQGTSVTVSS
VL: LSASVGETVTITCRASGNIHNYLAWYQQKQGKSPQLLVYNAKTLTDGVPSRFSGSGSGTQHSLKINSLQPEDFGSYYCQHFWTIPWTFGGGTKLEIK
B7: in the test with tetanus toxoid [3], the affinity, expressed as Kd, was 1.9 nM; the koff worked out at 0.00016 s⁻¹; the kon came to 86000 M⁻¹ s⁻¹.
